Target: bacterial recombinant GST-GRAIL fusion protein, Q9D304
Sequence (Q9D304 whole entry, looked up, the tested form may be a part): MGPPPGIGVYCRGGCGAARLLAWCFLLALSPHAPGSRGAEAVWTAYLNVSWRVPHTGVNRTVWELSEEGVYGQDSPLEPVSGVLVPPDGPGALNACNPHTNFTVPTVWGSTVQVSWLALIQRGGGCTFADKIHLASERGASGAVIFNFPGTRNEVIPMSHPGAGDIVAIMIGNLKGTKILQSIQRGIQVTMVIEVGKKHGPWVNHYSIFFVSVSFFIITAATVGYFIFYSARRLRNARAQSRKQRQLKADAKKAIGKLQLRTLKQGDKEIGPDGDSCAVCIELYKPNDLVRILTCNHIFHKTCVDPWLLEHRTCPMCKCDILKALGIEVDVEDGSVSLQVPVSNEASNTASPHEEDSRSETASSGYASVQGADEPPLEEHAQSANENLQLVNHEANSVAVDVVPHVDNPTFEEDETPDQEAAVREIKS

B1: USP8 expressed in E. coli (pET28) (protein)
chain: MPAVASVPKELYLSSSLKDLNKKTEVKPEKTSTKNYIHSAQKIFKTAEECRLDRDEERAYVLYMKYVAVYNLIKKRPDFKQQQDYYLSILGPANIKKAIEEAERLSESLKLRYEEAEVRKQLEEKDRREEEQLQQQKRQEMGREDSGAAAKRSVENLLDSKTKTQRINGEKSEGAAAAERGAITAKELYTMMMDKNTSLIIMDARKIQDYQHSCILDSLSVPEEAISPGVTASWIEANLSDDSKDTWKKRGSVDYVVLLDWFSSAKDLLLGTTLRSLKDALFKWESKTVLRHEPLVLEGGYENWLLCYPQFTTNAKVTPPPRSRAEEVSVSLDFTYPSLEEPVPSKLPTQMPPPPIETNEKALLVTDQDEKLRLSTQPALAGPGAAPRAEASPIIQPAPATKSVPQVDRTKKPSVKLPEDHRIKSENTDQSGRVLSDRSTKPVFPSPTTMLTDEEKARIHQETALLMEKNKQEKELWDKQQKEQKEKLRREEQERKAGKTQDADERDSTENQHKAKDGQEKKDSKQTKTEDRELSADGAQEATGTQRQSKSEHEASDAKVPVEGKRCPTSEAQKRPADVSPASVSGELNAGKAQREPLTRARSEEMGRIVPGLPLGWAKFLDPITGTFRYYHSPTNTVHMYPPEMAPSSAPPSTPPTHKVKPQVPAERDREPSKLKRSYSSPDITQALQEEEKRRPAVTPMVNRENKPPCYPKAEISRLSASQIRNLNPVFGGSGPALTGLRNLGNTCYMNSILQCLCNAPHLADYFNRNCYQDDINRSNLLGHKGEVAEEFGIIMKALWTGQYRYISPKDFKVTIGKINDQFAGSSQQDSQELLLFLMDGLHEDLNKADNRKRHKEENNEHLDDLQAAEHAWQKHKQLNESIIVALFQGQFKSTVQCLTCRRRSRTFEAFMYLSLPLASTSKCTLQDCLRLFSKEEKLTDNNRFYCSHCRARRDSLKKIEIWKLPPVLLVHLKRFSYDGRWKQKLQTSVDFPLENLDLSQYVIGPKNSLKKYNLFSVSNHYGGLDGGHYTAYCKNAARQRWFKFDDHEVSDISVSSVRSSAAYILFYTSLGPRITDVAT
B1 was tested, and the “de-ubiquitination of auto-ubiquitinated GST-GRAIL in vitro” value was “USP8 is capable of de-ubiquitinating GRAIL in vitro”.

Reference: patent publication US7964369
